Results on one molecule are retold here after patent US20230183352A1 (published 2023).

For assay [1], the target named is T1, Claudin 18.2 (CLDN18.2), expressed on CHOS-CLDN 18.2 / HEK293-CLDN 18.2 / HCC827-CLDN 18.2 cells (human, UniProt P56856-2 1-261).
T1 construct: whole, on cells; The species is not repeated for the CHOS-CLDN 18.2 cells; also called claudin-18A2
In words: FACS, CHOS-CLDN18.2 cells, 5 µg/ml. A general note: In flow cytometry, cells or beads pass a laser one at a time.
Description: (§1) The initial concentration of the antibody was 20 μg/ml, it was diluted at 1:4, and incubated at 4° C. for 60 min.

Assay [2] concerns the target T1, Claudin 18.2 (CLDN18.2), expressed on …. In words: FACS, CHOS-CLDN18.2 cells, 0.005 µg/ml.
Description: as §1
For assay [3] the target is unchanged. In words: FACS, CHOS-CLDN18.2 cells, 5 µg/ml. The source holds these as a separate data set.
Description: as §1
The target is the same in assay [4]. In words: FACS, CHOS-CLDN18.2 cells, 0.005 µg/ml. The source holds these as a separate data set.
Description: as §1
Assay [5] has the same target. In words: FACS, CHOS-CLDN18.2 cells, 5 µg/ml. The source holds these as a separate data set.
Description: as §1
The target is the same in assay [6]. In words: FACS, CHOS-CLDN18.2 cells, 0.313 µg/ml.
Description: as §1
Assay [7] has the same target. In words: FACS, CHOS-CLDN18.2 cells, 20 µg/ml.
Description: as §1
Assay [8] shares this target. Kind of assay: FACS, CHOS-CLDN18.2 cells, 20 µg/ml. This is another data set of the same source.
Description: as §1
The target is the same in assay [9]. Kind of assay: FACS, CHOS-CLDN18.2 cells, 0.005 µg/ml. The source holds these as a separate data set.
Description: as §1
Assay [10] has the same target. Kind of assay: cell-based or functional assay.
Assay [11] shares this target. In words: FACS, CHOS-CLDN18.2 cells, 0.078 µg/ml.
Description: as §1
Assay [12] has the same target. Kind of assay: FACS, MFI on CHOS-CLDN18.2 over MFI on CHOS-CLDN18.1, 10 µg/ml.
Description: The initial concentration of the antibody was 20 μg/mkit was diluted at 1:4, and incubated at 4° C. for 60 min.

B1: QP024025 (antibody, human IgG1, V domains shown)
VH: QVQLQQPGAELVRPGASVKLSCKASGYTFTSYWINWVKQRPGQGLEWIGNIYPSDSYTNYNQKFKDKATLTVDKSSSTAYMQLSSPTSEDSAVYYCTRSWRGNSFDYWGQGTTLTVSS
VL: DIVMTQSPSSLTVTAGEKVTMSCKSSQSLLNSGNQKNYLTWYQQKPGQPPKLLIYWASTRESGVPDRFTGSGSGTDFTLTISSVQAEDLAVYYCQNDYSYPFTFGSGTKLEIK
notes: also called IMAB362; 175D10(IMAB362)
B1: the FACS reading in assay [1] stood at 105000. The same molecule yielded an FACS reading in assay [2] of 2830. The molecule also displayed an FACS reading in assay [3] of 105000. Also, the FACS reading in assay [4] was 2830. The FACS reading in assay [5] was 105000. This molecule also registered an FACS reading in assay [6] of 51000. In assay [7], this molecule showed an FACS reading of 72300. Also, the FACS reading in assay [8] is 72300. In assay [9], this molecule gave an FACS reading of 2830. Moreover, in assay [10], the “EC50 of killing, ADCC (PBMC, HEK293-CLDN18.2 cells)” value worked out at 0.0156 mg/L; the “Killing percentage, ADCC (PBMC, HEK293-CLDN18.2 cells), 0 µg/ml” value was -1.33%; the “Killing percentage, ADCC (PBMC, HEK293-CLDN18.2 cells), 0.0001024 µg/ml” value was -2.74%; the “Killing percentage, ADCC (PBMC, HEK293-CLDN18.2 cells), 0.000512 µg/ml” value came out at 1.7%. Moreover, in assay [10], the “Killing percentage, ADCC (PBMC, HEK293-CLDN18.2 cells), 0.00256 µg/ml” value is 1.49%; the “Killing percentage, ADCC (PBMC, HEK293-CLDN18.2 cells), 0.0128 µg/ml” value came to 11%; the “Killing percentage, ADCC (PBMC, HEK293-CLDN18.2 cells), 0.064 µg/ml” value came out at 22%; the “Killing percentage, ADCC (PBMC, HEK293-CLDN18.2 cells), 0.32 µg/ml” value was 28.2%. Besides, in [10], the “Killing percentage, ADCC (PBMC, HEK293-CLDN18.2 cells), 1.6 µg/ml” value was determined as 30%; the “Killing percentage, ADCC (PBMC, HEK293-CLDN18.2 cells), 8 µg/ml” value amounted to 26.2%; the “Killing percentage, ADCC (PBMC, HEK293-CLDN18.2 cells), 40 µg/ml” value came to 21.6%. Moreover, the FACS reading in assay [11] was 18200. In assay [12], the “CLDN18.2/CLDN18.1 (MFI ratio)” value is 104.
